These results are taken from paper PMC7979937, “Crystal structures of human MGST2 reveal synchronized conformational changes regulating catalysis” (Nature Communications, 2021).

This data set deals with the molecule itself. The data set is described as follows: crystal structure; crystals grown in lipidic cubic phase (8.8 MAG for apo, 9.9 MAG for GSH and GSO3- complexes), protein at 30 mg/ml, 20 °C; apo, with 7 mM GSH, with 7 mM GSO3-; homo-trimer.

B1: Microsomal glutathione S-transferase 2 (human) (enzyme)
chain: not shown
notes: Microsomal glutathione S-transferase 2 (MGST2), human; cDNA from IMAGE clone 5277851 cloned in pPICZA; Integral membrane protein, homo-trimer in the crystals; The terminal ends are disordered in the crystal structures; also called MGST2; apo-MGST2; source: Pichia pastoris KM71H, purified (Ni-Sepharose, S-hexylglutathione agarose, SEC) in DDM
In general, stoichiometry N refers to a count of units in the complex or per binding partner. For B1, the “stoichiometry N” value worked out at 3.
